Measured values taken from PMC10156745, “Tuning charge density of chimeric antigen receptor optimizes tonic signaling and CAR-T cell fitness” (Cell Research, 2023).

Target: T1, CD19 on Nalm6 cells (Homo sapiens, UniProt P15391)
T1 construct: CD19 (B-lymphocyte antigen CD19) on the surface of Nalm6 cells; this is surmised; source: Nalm6 cells expressing CD19 on the cell surface
Assay: flow cytometry on cells; purified antibodies titrated on Nalm6 cells expressing CD19; cell-based FACS assay
Details: one partner purified

T1 sequence (P15391 20-556): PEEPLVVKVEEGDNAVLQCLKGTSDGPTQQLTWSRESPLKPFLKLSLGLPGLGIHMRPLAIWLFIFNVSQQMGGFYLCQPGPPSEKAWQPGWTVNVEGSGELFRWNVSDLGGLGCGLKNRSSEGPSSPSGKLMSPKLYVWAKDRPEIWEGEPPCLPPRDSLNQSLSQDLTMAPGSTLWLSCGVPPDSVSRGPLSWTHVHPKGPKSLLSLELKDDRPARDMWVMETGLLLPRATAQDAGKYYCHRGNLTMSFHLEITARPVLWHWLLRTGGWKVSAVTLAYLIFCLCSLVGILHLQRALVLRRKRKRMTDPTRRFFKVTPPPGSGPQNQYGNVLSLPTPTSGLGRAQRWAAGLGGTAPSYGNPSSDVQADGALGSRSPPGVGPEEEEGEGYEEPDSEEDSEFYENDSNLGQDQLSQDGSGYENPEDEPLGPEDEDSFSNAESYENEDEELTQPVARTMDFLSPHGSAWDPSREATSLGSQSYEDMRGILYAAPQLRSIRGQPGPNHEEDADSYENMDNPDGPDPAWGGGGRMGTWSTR

EC50: 2.6 nM
B1: CD19^M1 antibody (antibody, V domains shown)
VH: EVKLKESGPGLVAPSQSLSVTCKASGVSLPDYGVSWIRQPPRKGLEWLGVIWGSETTYYNSALKSRLTIIKDNSKSQVFLKMNSLQTDDTAIYYCAKHYYYGGSYAMDYWGQGTSVTVSS
VL: DIKMTQTTSSLSASLGDRVTISCRASQDISKYLNWYQQKPDGTVKLLIYHTSRLHSGVPSRFSGSGSGTDYSLTISNLEQEDIATYFCQQGNTLPYTFGGGTKLEIK
notes: as the VH of m1 (FMC63) with uncharged framework residues mutated to lysines; human IgG1 constant region, fused to the variable region in the pCMV plasmid; as the VL of m1 (FMC63) with uncharged framework residues mutated to lysines; light-chain constant region; IgG1 format; Variant of FMC63 with positively charged patches introduced into the framework regions; also called PCP-modified CD19 …
